Data taken from article PMC3058826 (Nature, 2010).
Changes are numbered by the printed parent chain. One block for each molecule: values may come before it.

Tests used:
[1] = molecular target: T1, TRIM24 PHD-Bromo (WT) (Homo sapiens, UniProt O15164); assay: ITC binding of histone peptides; details: PHD-Bromo (bromodomain binding)
T1 sequence (O15164 824-1006): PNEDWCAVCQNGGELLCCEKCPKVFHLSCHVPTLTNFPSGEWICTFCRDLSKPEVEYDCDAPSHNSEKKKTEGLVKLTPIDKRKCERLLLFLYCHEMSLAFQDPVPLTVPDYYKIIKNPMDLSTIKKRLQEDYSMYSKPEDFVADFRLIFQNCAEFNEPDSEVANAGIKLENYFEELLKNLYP

[2] = test system: ERα, GREB1 distal ERE, MCF7 cells; assay: ChIP of ERα at GREB1 ERE's; assay type: cell-based; details: 10 nM estradiol, six hours
[3] = test system: TRIM24, GREB1 distal ERE, MCF7 cells; assay: ChIP of TRIM24 at GREB1 ERE's; assay type: cell-based; details: 10 nM estradiol, six hours
[4] = molecular target: T2, TRIM24 PHD-Bromo (F979A/N980A) (Homo sapiens, UniProt O15164, F979A/N980A); assay: ITC binding of histone peptides
T2 sequence (O15164 824-1006 F979A/N980A): T1 sequence (O15164 824-1006) with F156A, N157A

binding affinity in words [1]: weak binding affinity
Molecule: H3(13-32)K27ac: H3(13–32) peptide, K27ac; ITC values are those of the -Bio form

Molecule: C[C@]12CC[C@@H]3c4ccc(O)cc4CC[C@H]3[C@@H]1CC[C@@H]2O [estradiol]
increase of ERα binding [2]: 7 fold
increase of TRIM24 binding [3]: 6 fold

binding affinity in words [4]: loses most of the binding affinity
Molecule: H3(13-32)K23ac: H3(13–32) peptide bearing acetylated K23; ITC values are those of the -Bio form
